Assay: soluble on expression in E. coli; label from the status in PepcDB or PDB records

| Sequence | soluble on expression in E. coli |
| --- | --- |
| MGSDKIHHHHHHMDKAFPSGLAVGIFDHLDEDGPDIARQYEDRLMLAEACDHLGFYAYHLAEHHCTPHGRGPSPNLFLSSVAQRTRRLRVGPLVMLLALYHPLRAFEEICMLDQLSGGRLELGIGRGSLPIELGYFGIGSDAAPNHYAEASEILINALKGGTLSYQGRHFELNSVPLTLRTHQRPHPPTWIATNRPESAVWAAANGVNIACVGPSSSVRRITDAFRREHTSEADDQTPFLGLLRMVVIGRSETDARSLAAPAYERWLKSFKFLYDLNGMPTPPNLPLTFDAAIEKELCVVGTAASAGHALLEQLEAAGANYLLCQPAFGNLSLDASLYTATAIQSAIMARVG | not soluble |
| MNQKPTPLMSPPPPAQQNGKDHKEKLHRIEDIMYSDADTFPEFSNRDGSRETVDTCWQLVLIRVPEHPNETHIKTINDAITSEMKATWKIPATSFAYVSAPHIPILQLAYGVAKKHFGEKTAIRSSFMFAEPKNDKFLIAKDSDLKHLKYEVILGASRFCWTKVETHAEMSKRIESTLFELMRVLPNLVLFLGPLAFDVLYETLEMQKRKTIAKPGVVIENFKRENNKWKRVQKHGATSISVPLC | not soluble |
| MAHHHHHHMPVRRYGGRYNSSSPGVSNALNPSRTAGWPLSPSPATGSKPASTHHDPVPQEAYYVKDEADARHQQQAPLREPSVEVEVEIIDDEPPRGSQKPLSVAPCTANANNSSGGSKCNAITASRYTFYTNAYQKSVYEALRSLRPLPELQEPRRVKEYAETSLKDSLYRIVEAHDVIMVAGAFFGDEGKGKTVDAVARHPLCTCIARVNSGENAGHTVYDKAGRKFVFNLAPSGLLLPGKRNYIGPECVMDPVSFMEKEVIQLIDAGIDYRDRLFIGNVCIVTPYHKLLDLLGSAANSSTLKGMAPVHGSKVMKRGIRLDHIFNDDETLRKRLEKDMDTYFGLLKVKNLSDADVVRLCREENSDGVVRVPDYVIAFAQAEDKVEFLVKLYRDRVRHNPGFPARCDVTYELHAALLRGEKVLLEGPQSYWLSNARTKFWESTTSADTTAAGLLAASQLNFQKFKSVVLNVHKAPGSSRVGIGACPSSFVPQDYFSAQNIKTLRDLPSATCAHFEAVQRTLFRDGFPHSNDKARHNGIMAPVEYSDETGTYNIGVAMAIASAQHHGECGAVTKKPRVCGFFDCVLHHEVNNIQGPYLTISALDRGDEYDKVGVTIAYVYYSPEGKQVDVNGHVYKNGDIIRAGDPVPSEPALYHCHPIVKLIDGWRDNPIAAAKRRRNAPLPRGVCELLSAIEYFTNCKILSIGNGPNGDDIIYLRQ | not soluble |
| MAHHHHHHMVSFSLIIYTSLRLAHACDARNCTLQQLGRQLEAVVTVCDESSSTTTTESTSERANNASSAADATRTGQGADAAQQVHSTTQAKRASLARDSDFKSSSEIAAFSVLRAWCPPPTARILILGMGGNSMAHALRVVLGAEALIEVVEVEPAVVVSCMQMGTLHESDTKTKVHLQDADQCLATLPPTTYDFIYMDIFEPIQATMRNLHPWVLATRTLLKPGGLLVMNDHHLPSAAGVAPYAKVFGEGNVQAVNLRGWSESIVVCVAPGDAATDKYSLDVSKTHADIAFNIYETLVPGWLPHFSWLVKAKTYRHEGVRCRLWTS | soluble |
| MSLATTSTEPPTELSGEITMWHSFTQGPRLESIQKSADAFMQKHPKTKIKIETFSWNDFYTKWTTGLANGNVPDISTALPNQVMEMVNSDALVPLNDSIKRIGQDKFNETALNEAKIGDDYYSVPLYSHAQVMWVRTDLLKEHNIEVPKTWDQLYEASKKLKEAGVYGLSVPFGTNDLMATRFLNFYVRSGGGSLLTKDLKADLTSQLAQDGIKYWVKLYKEISPQDSLNFNVLQQATLFYQGKTAFDFNSGFHIGGINANSPQLIDSIDAYPIPKIKESDKDQGIETSNIPMVVWKNSKHPEVAKAFLEALYNEEDYVKFLDSTPVGMLPTIKGISDSAAYKENETRKKFKHAEEVITEAVKKGTAIGYENGPSVQAGMLTNQHIIEQMFQDIITNGTDPMKAAKEAEKQLNDLFEAVQEGHHHHHH | soluble |
| MSNDNEVPGSMVIVAQGPDDQYAYEVPPIDSAAVAGNMFGDLIQREIYLQKNIYYPVRSIFEQGTKEKKEINKKVSDQVDGLLKQITQGKREATRQERVDVMSAVLHKMESDLEGYKKTFTKGPFIDYEKQSSLSIYEAWVKIWEKNSWEERKKYPFQQLVRDELERAVAYYKQDSLSEAVKVLRQELNKQKALKEKED | soluble |
| HQYSDLTINPSLGPASPTSFDDLATYRFEQWVNNLDITRAFDGLFGVPLQVSAGLEHRWERFRTFSGDAQAYQVGGYRFPASLPNGQASPLAGQLASIAAQAAAVISPQDATRLQRNNYAAYVDFGITPIEPLFVDLALRAEHFDDDSGNTVSAKLNSRYEFTDTFAVRGTVGTGFRAPSLTQTGYSISDNRVGAAPDGTIVPAVTRIAPVNSALAQALGATTLDPEKSRNLGVGVTWQPAPRTSLTADAYWIEIADRIARTESLYGPALAPTLTAQGVDTSTWTSYYANAFDTRTRGLDIVLD | not soluble |
| HSPKVSSQNRTRSFGHFPGPEFLDVEKTSFSQEQSCDSAGEGSERIHQDSESGDELSSSSTEQIRATTPPNQGRPDSPVYANLQELKISQSALPPLPGSPAIQINGEWETHKDSSGRCYYYNRGTQERTWKPPRWTRDASISKGDFQNPGDQEWLKHVDDQGRQYYYSADGSRSEWELPKYNASSQQQREIIKSRSLDRRLQEPIVLTKWRHSTIVLDTNDKESPTASKPCFPENESSPSSPKHQDTDQEKYGLLNVTKIAENGKKVRKNWLSSWAVLQGSSLLFTKTQGSSTSWFGSNQSKPEFTVDLKGATIEMASKDKSSKKNVFELKTRQGTELLIQSDNDTVINDWFKVLSSTINNQAVETDEGIEEEIPDSPGIEKHDKEKEQKDPKKLRSFKVSSIDSSEQKKTKKNLKKFLTRRPTLQAVREKGYIKDQVFGSNLANLCQRENGTVPKFVKLCIEHVEEHGLDIDGIYRVSGNLAVIQKLRFAVNHDEKLDLNDSKWEDIHVITGALKMFFRELPEPLFTFNHFNDFVNAIKQEPRQRVAAVKDLIRQLPKPNQDTMQILFRHLRRVIENGEKNRMTYQSIAIVFGPTLLKPEKETGNIAVHTVYQNQIVELILLELSSIFGR | soluble |
| MAHHHHHHMDVLGTCTALVATLQEPQEDIQSRDHYELVLLDGPSLPIVGVSSTGGLLAATSAASAAAAATAAVAAADDTMSSTEAAKESASDSDAAVTRVKTTIDLHQAFARFQRTDSAENYLLDVVYVGDCTMMLIRNGRVCYVTEEQAHQLDYPYQLGTGSNDTPKDGVRLLIPVEKGDIVVMGTDGIFDNLYPHRIVELIWPHLERVFSQHGYLQALGGAETAKAPANAVSYVKNRNLRTLLDDIMAALDMGANAVMADAMTVSRDVRCDSPYASKCIENGALFEGGKPDDMTLLISVIGESDDGEPSEQFSGSETAFPLPYRDWP | not soluble |
| MSRVCVFFLLSFIFSVHADPKVVNLFRVTSLGSLTISVESGGKIFLASGDDNQYLKNIQLTTGTTTITLDKLNDLNDDGSPKFITAAGSVILQTSNNDTTTSRLSGYIYVTTYLQAQDPTFSVYVLKTTQSISKMGMKSTVVVLNTVLRQELIDYDMPRAISYVTKIDHSPNTNLYFQWDIPASNWNDVTNNTFFRNPIELKNGTGPHFKVFFDNIEPLQIGLNYWYITSMGPFNLFLENKYVSDHSYTTTAVNTTGIIVGKSFYADRVVNFQSDTSRSSASGFFDSAYITDDLTIKLQFVGASFSNTLRKESETQNYAWSPAAPVNLTVTSTSTLPGTFYIQYFAFAGDLQPLTSTVATSLMLQTSTTTVASTAVTTSRIITTTKGSSSNCGVHILISLLLSMVFC | not soluble |
| MQARWIGNMMFHVRTDSNHDVLMDTKEEVGGKDAAPRPLELVLTGLMGCTGMDVVSILRKMKVIDQMKDFRIEIEYERTEEHPRIFTKVHLKYIFKFDGEPPKDKVEKAVQLSQEKYCSVSAILKCSSKVTYEIVYEN | not soluble |
| MGSDKIHHHHHHMQSLYTSASTMAQLQKQLDTTGHNLANANTNGYKRRDSQFNELLVRNLNNQPAGLTPGSLTTPAGLRLGVGGYVANEATRFATGTFQNTGRKLDAALSNPHHFFGVIDADGVTKFTRDGNFELSPQANGQVLLTDDAGRSVINQANEPITFPDDATSIELNKDGNITGVLNGERRVLARIGVADIPNHGELTDVGGGLYTTAGQYQNATGNPLTVGTLETSNVDMATEMTNLTQIQRAYQFNSKALTTSDQMMGIVTSLK | not soluble |
| MSLLKISGKFFDEDNVDNLIVLRQSIKELADNGFRVGIVTGGGSTARRYIKLAREIGIGEAYLDLLGIWASRLNAYLVMFSLQDLAYMHVPQSLEEFIQDWSHGKVVVTGGFQPGQSTAAVAALVAEASSSKTLVVATNVDGVYEKDPRIYADVKLIPHLTTQDLRKILEGSQSVQAGTYELLDPLAIKIVERSKIRVIVMNYRKLNRIIDILKGEEVSSIIEPVEGHHHHHH | not soluble |
| MSTFRLALIQLQVSSIKSDNLTRACSLVREAAKQGANIVSLPECFNSPYGTTYFPDYAEKIPGESTQKLSEVAKESSIYLIGGSIPEEDAGKLYNTCSVFGPDGSLLVKHRKIHLFDIDVPGKITFQESKTLSPGDSFSTFDTPYCKVGLGICYDMRFAELAQIYAQRGCQLLVYPGAFNLTTGPAHWELLQRARAVDNQVYVATASPARDDKASYVAWGHSTVVDPWGQVLTKAGTEETILYSDIDLKKLAEIRQQIPILKQKRADLYTVESKKP | soluble |
| MSSAENIKESGKAKKQKNGNKNNNKKPSAEAIPLKNSPRNKLKKRGSMEQLSEQISEVFTIEMNNDQATVEEPTDTTVRINPADPSSPKVSTSEPKVTVPEPPPTHYAPVVVFIDHLSWPIFLHFVIVNRNMIITKVGRSFLTSLMPGDQISGVDSTPIWCIEDLEHEIQSKPARSVNLTVNRVWNIKCLTNIQLERILPQTDERLQYFMVHVYCSNGTGGLKLYSDKKRVLVQHIRAKTPICHALLVGDQILAINDEFLIGKPKKSLRRHAYDSIKKSFKTKGFAEIIACRPIGARSSPAPSVDAELSGKFANYACGVEKGNKLERKVTDETNNLPLEADALEIALRELTFLQQWVKQDFEEAPCEKGKSLLILKPPFENAKPYEYPPFVVNHQTQLVSAKALSSPVTNTPVAHSPPQALPNKTIIVPVGSTSSVLVPSTTSNALPPVLSLNSQSLSVKTLSMAPQVSQVEPPTSVMNGPTEAADLHVAVPPSPNTPRKRSIFKYKQEKGQTPEHQTTISFVEQPETSKITSDISEDEELKKCDPRSGIVAFIKNKFN | not soluble |
| MGSDKIHHHHHHMVAMQSYPYVITVSSEKGGVGKTTLATNLAIYLKALDENLPVSIFSFDNHFTVDRMFEIRGQRTTGTVADLLLETPGRDLIHTGQYGVGYIPSSPNLSDLKGTVKTPMMLARLLALSRIPGVVVIDTRPDLDILTQNALFAADRAIIPVKDMPSLENCRNIFALFEQRGLDRKSLSLIPCLVDERIKFDGPFSDQKTLLKAYAINRGYRCFETYISKSPKVESLNTNPDGKIYPILTHAKWTEVHGQFAQLAQTIITEFRATAEPRAFLFHQWLQSEEVRKKEAFFARLSGIKSECLLCGRPVSGKDSDRVSFYFEVSDGSAAGFFEEECFFRLLMTNVYNLDINLADDDPTLQIMRDAARESAFVFRPVTNGSGTTVDFHRFGLDGVHLLKKAYPLREFEGGMLTREKSRLFSLLSETFGNRLDASPDSFLLVHPVHQEKPEAILQEECYRGFARLRQRIAQQVLPPN | not soluble |
| AMMIGIIGAMEEEVTILKNKLTQLSEISVAHVKFYTGILKDREVVITQSGIGKVNAAISTTLLINKFKPDVIINTGSAGALDESLNVGDVLISDDVKYHDADATAFGYEYGQIPQMPVAFQSSKPLIEKVSQVVQQQQLTAKVGLIVSGDSFIGSVEQRQKIKKAFPNAMAVEMEATAIAQTCYQFNVPFVVVRAVSDLANGEAEMSFEAFLEKAAVSSSQTVEALVSQL | soluble |
